According to US20250170267A1, “ANTIBODY-DRUG CONJUGATE PRECURSOR AND INTERMEDIATE FOR SYNTHESIS THEREOF” (UBE Corporation, priority 2022, published 2025):

Columns and labels:
human liver Cathepsin B = target: T1, human liver Cathepsin B (Homo sapiens, UniProt P07858); test: Metabolism test using human liver Cathepsin B; assay type: in vitro ADME; conditions: 37° C., 24 hours, released drug, LC-MS/MS
T1 construct: human liver Cathepsin B (manufactured by Sigma-Aldrich Co. LLC, Cat No. C8571 25 μg/vial); purchased Sigma-Aldrich Co. LLC C8571; host or cells: human liver
Description: To human liver Cathepsin B (manufactured by Sigma-Aldrich Co. LLC, Cat No. C8571 25 μg/vial)(corresponding to 400 Unit/mL)(5 μL), X10 Catabolic Buffer (manufactured by SEKISUI-Xenotech, LLC., K5200)(10 μL), 2.5 mM Bovine Serum Albumin (manufactured by FUJIFILM Wako Pure Chemical Corporation, Cat No. 012-15093)(5 μL), and distilled water (manufactured by FUJIFILM Wako Pure Chemical Corporation, for HPLC)(55 μL) was added 1.2 μM test compound (antibody-drug conjugate prepared in ADC Production examples)(25 μL) dissolved in PBS to prepare a reaction solution. After the reaction solution was incubated at 37° C. for 24 hours, “an antitumor drug molecule or an analog thereof, or a derivative thereof” released from the antibody-drug conjugate into the reaction solution was quantified by LC-MS/MS (high performance liquid chromatography/mass spectrometer system) under the following conditions. LC-MS/MS analysis conditions
(§1) LC: LC20 or LC30 HPLC system manufactured by Shimadzu Corporation
(§2) Column: Phenomenex Kinetex C18 (50×2.1 mm, 2.6 μm)
(§3) Column temperature: 40° C.
(§4) Mobile phase A: 0.1% aqueous solution of formic acid, Mobile phase B: 0.1% solution of formic acid in a mixture of 50% acetonitrile/methanol
(§5) Mode: Positive or Negative
(§6) The release rate (%) of drug was calculated by the following equation.

human liver lysosome = test: Metabolism test using human liver lysosomal fraction; assay type: in vitro ADME; conditions: 37° C., 24 hours, released drug, LC-MS/MS
Description: To a reaction composition solution (X10 Catabolic Buffer (manufactured by SEKISUI-Xenotech, LLC., K5200))(60 μL) in which human liver lysosome (manufactured by SEKISUI-Xenotech, LLC., Cat No. H610.L 2.5 mg/mL)(corresponding to 0.125 mg of protein) was suspended and distilled water (manufactured by FUJIFILM Wako Pure Chemical Corporation, for HPLC)(10 μL) was added 1.2 μM test compound (antibody-drug conjugate produced in ADC Production examples)(25 μL) dissolved in PBS to prepare a reaction solution. After the reaction solution was incubated at 37° C. for 24 hours, “an antitumor drug molecule or an analog thereof, or a derivative thereof” released from the antibody-drug conjugate into the reaction solution was quantified by LC-MS/MS (high performance liquid chromatography/mass spectrometer system) under the following conditions. LC-MS/MS analysis conditions
as §1, §2, §3, §4, §5, §6

[1] = Retention time in HPLC (index of hydrophilicity); assay type: physicochemical; conditions: Table 6 (eribulin precursors); BEH C18, 0.1% formic acid/acetonitrile gradient, 40° C.
Description: As an index of hydrophilicity of the Examples, the retention time (RT) in HPLC analysis was measured, and compared.
Device: LCMS2020 system Shimadzu Corporation
Column: Acquity UPLC (registered trademark) BEH C18 (2.1×50 mm, 1.7 μm)_Waters
Eluent: Solution A: 0.1% aqueous solution of formic acid, Solution B: 0.1% solution of formic acid in acetonitrile

[2] = Pharmacokinetic test (serum trastuzumab residual rate); assay type: in vivo; conditions: female BALB/c mouse, intravenous; 3 days vs 5 minutes after administration
Source text: After a prescribed time period, the blood was collected from the jugular vein or abdominal vein, and centrifuged to prepare a serum. The resulting serum was cryopreserved until the measurement.

## C=C1C[C@@H]2CC[C@@]34C[C@H]5O[C@H]6[C@@H](O3)[C@H]3O[C@H](CC[C@@H]3O[C@H]6[C@H]5O4)CC(=O)C[C@@H]3[C@@H](OC)[C@@H](C[C@H](O)CNC(=O)OCc4ccc(NC(=O)[C@H](CCCNC(N)=O)NC(=O)[C@@H](NC(=O)[C@H](CC(=O)N[C@H]5CCOC5=O)NC(=O)[C@H](CCCCN(C)C)NC(=O)CCOCCOCCOCCOCCNC(=O)[C@H](CNC(=O)CCP(=O)(O)O)N5C(=O)C=CC5=O)C(C)C)cc4)O[C@H]3C[C@H]3O[C@@H](CC[C@@H]1O2)C[C@@H](C)C3=C [Example 18]
Human liver Cathepsin B
  Release rate (%) of drug from ADC: 64%
Human liver lysosome
  Release rate (%) of drug from ADC: 75%
[1]
  Retention time in HPLC measurement: 0.96 min
[2]
  Serum trastuzumab residual rate after 3 days from administration (%): 73%

## C=C1C[C@@H]2CC[C@@]34C[C@H]5O[C@H]6[C@@H](O3)[C@H]3O[C@H](CC[C@@H]3O[C@H]6[C@H]5O4)CC(=O)C[C@@H]3[C@@H](OC)[C@@H](C[C@H](O)CNC(=O)OCc4ccc(NC(=O)[C@H](CCCNC(N)=O)NC(=O)[C@@H](NC(=O)[C@H](CC(=O)N[C@H]5CCOC5=O)NC(=O)CN(C)CCNC(=O)CCOCCOCCOCCOCCNC(=O)[C@H](CNC(=O)CCP(=O)(O)O)N5C(=O)C=CC5=O)C(C)C)cc4)O[C@H]3C[C@H]3O[C@@H](CC[C@@H]1O2)C[C@@H](C)C3=C [Example 16]
Human liver Cathepsin B
  Release rate (%) of drug from ADC: 62%
Human liver lysosome
  Release rate (%) of drug from ADC: 72%
[1]
  Retention time in HPLC measurement: 0.97 min
[2]
  Serum trastuzumab residual rate after 3 days from administration (%): 64%
